Biological target: PD-L1 antigen (coated on 96-well immunoplate) (UniProt Q9NZQ7)
Assay: single antigen ELISA, PD-L1 coated at 1 ug/mL, detection with anti-hFc-HRP

PD-L1 antigen (coated on 96-well immunoplate), sequence (Q9NZQ7 19-238 limits assumed): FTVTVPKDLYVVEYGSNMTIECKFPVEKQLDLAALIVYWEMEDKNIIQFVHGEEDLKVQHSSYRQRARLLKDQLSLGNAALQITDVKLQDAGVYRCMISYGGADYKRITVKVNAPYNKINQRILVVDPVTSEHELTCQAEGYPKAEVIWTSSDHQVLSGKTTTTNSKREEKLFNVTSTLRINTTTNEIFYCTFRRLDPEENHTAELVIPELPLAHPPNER

- EC50 (read off the curve): 0.03 µg/mL
Substance: Tecentriq (Genetech, atezolizumab, anti-PD-L1 antibody)
